Experiments:
[1] = target: cynomolgus CD38 on cynomolgus B cells (PBMCs) (cynomolgus) (UniProt Q5VAN0); test: cell-based or functional assay
[2] = target: Recombinant minimally biotinylated human CD38-His (Fisher Scientific) (human) (UniProt P28907); test: Absolute KD; BLI, Octet HTX, CD38-His at five loading levels 0.3-2 nm, plateau of measured KD as loading decreases
[3] = target: Recombinant minimally biotinylated cynomolgus CD38-His (Sino Biological Inc.) (cynomolgus) (UniProt Q5VAN0); test: as above
Recombinant minimally biotinylated cynomolgus CD38-His (Sino Biological Inc.) (cynomolgus), sequence (Q5VAN0 44-301 limits assumed): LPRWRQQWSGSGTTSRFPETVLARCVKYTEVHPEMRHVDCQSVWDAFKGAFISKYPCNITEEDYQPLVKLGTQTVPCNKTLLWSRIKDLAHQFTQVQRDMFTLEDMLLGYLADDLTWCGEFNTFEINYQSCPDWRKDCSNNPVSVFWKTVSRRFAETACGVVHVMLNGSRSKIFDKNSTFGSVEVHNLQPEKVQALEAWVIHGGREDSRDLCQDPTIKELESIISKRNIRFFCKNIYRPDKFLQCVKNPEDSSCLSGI

[4] = target: Recombinant minimally biotinylated human CD38-His (Fisher Scientific) (human) (UniProt P28907); test: BLI, Octet HTX; biotinylated CD38-His on streptavidin tips (2 nm), antibody in solution; 1:1 model, kd/ka
[5] = target: Recombinant minimally biotinylated cynomolgus CD38-His (Sino Biological Inc.) (cynomolgus) (UniProt Q5VAN0); test: as above
[6] = target: Recombinant human CD3ε-Fc (human); test: SPR, SensiQ Pioneer FE; CD3ε-Fc amine coupled to CM5 chip; equilibrium analysis
Recombinant human CD3ε-Fc (human), sequence (chain, as listed by the source): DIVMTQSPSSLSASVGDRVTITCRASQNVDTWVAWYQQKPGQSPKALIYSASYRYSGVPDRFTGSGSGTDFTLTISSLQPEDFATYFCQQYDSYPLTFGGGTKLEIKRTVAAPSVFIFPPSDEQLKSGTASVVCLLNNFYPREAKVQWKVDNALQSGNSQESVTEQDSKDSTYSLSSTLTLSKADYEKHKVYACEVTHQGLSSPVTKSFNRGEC

[7] = target: Recombinant cynomolgus CD3ε-Fc (cynomolgus) (UniProt Q95LI5); test: as above
Recombinant cynomolgus CD3ε-Fc (cynomolgus), sequence (Q95LI5 22-117 limits assumed): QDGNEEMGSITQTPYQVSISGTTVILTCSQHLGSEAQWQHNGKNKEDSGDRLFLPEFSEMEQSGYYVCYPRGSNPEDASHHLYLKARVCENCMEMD

[8] = target: Recombinant human CD3ε-Fc (human); test: Absolute KD; SPR, Biacore T200, CD3ε-Fc amine coupled to CM5 at lowest usable density; koff/kon, 1:1 global fit

Recombinant minimally biotinylated human CD38-His (Fisher Scientific) (human), sequence (P28907 43-300 limits assumed): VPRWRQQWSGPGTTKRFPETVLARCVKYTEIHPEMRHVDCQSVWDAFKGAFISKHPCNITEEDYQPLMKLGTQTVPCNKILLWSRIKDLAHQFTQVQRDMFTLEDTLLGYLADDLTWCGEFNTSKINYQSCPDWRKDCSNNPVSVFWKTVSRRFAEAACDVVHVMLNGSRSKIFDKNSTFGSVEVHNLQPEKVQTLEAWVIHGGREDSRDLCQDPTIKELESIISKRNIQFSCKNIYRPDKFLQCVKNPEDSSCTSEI
cynomolgus CD38 on cynomolgus B cells (PBMCs) (cynomolgus), sequence (Q5VAN0 whole entry): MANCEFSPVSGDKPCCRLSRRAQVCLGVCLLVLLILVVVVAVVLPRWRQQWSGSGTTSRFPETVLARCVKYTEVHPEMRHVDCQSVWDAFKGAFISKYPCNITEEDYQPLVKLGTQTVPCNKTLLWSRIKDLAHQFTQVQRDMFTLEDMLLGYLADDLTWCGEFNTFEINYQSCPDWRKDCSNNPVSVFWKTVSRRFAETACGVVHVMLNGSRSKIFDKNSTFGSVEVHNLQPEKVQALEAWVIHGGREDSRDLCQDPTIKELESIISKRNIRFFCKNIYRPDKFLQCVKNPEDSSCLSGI

Substance: XmAb18968 (412220) (bispecific antibody)
- Cyno B Cell TDCC EC50 [1]: 82 pM
- Kd [2]: 8.9 nM
- Kd [3]: 7.5 nM
- Kd [4]: 2.5 nM
- Kd [5]: 2.8 nM
- Kd [6]: 29.7 nM
- Kd [7]: 33.5 nM
- Kd [8]: 35.6 nM

— US20180305465A1
